In patent US20180177842A1 (CANIMGUIDE THERAPEUTICS, published 2018):
Ends that are not written are not given here.

T1: P3028 (VFDEFKPLVEEPQNLIK, SEQ ID NO: 185), His-tagged (human)
T1 construct: Synthetic fragment of human serum albumin (positions 397-413); used in solution as His-tagged peptide PGE73; also called PGE73; not shown: His-tag
T1 peptide: VFDEFKPLVEEPQNLIK

T2: His-tagged P3028 (human, also: His tag, length and end not given here)
T2 construct: in solution at 0.5 ug/mL, detected with mouse anti-His antibody and rabbit anti-mouse peroxidase (rampo); also called PGE73; His-tag-P3028; not shown: His tag
T2 peptide: VFDEFKPLVEEPQNLIK

B1: KKLDTSFVKLSLFTER (SEQ ID NO: 401) (peptide)
peptide: KKLDTSFVKLSLFTER
B2: KKSDTFFVKLSLFTER (SEQ ID NO: 295) (peptide)
peptide: KKSDTFFVKLSLFTER
B3: KKLETFFVKLSLFTER (SEQ ID NO: 299) (peptide)
peptide: KKLETFFVKLSLFTER
B4: KKLMTFFVKLSLFTER (SEQ ID NO: 423) (peptide)
peptide: KKLMTFFVKLSLFTER
B5: QKLDTFFVKLSLFTER (SEQ ID NO: 278) (peptide)
peptide: QKLDTFFVKLSLFTER
B6: KKLFTFFVKLSLFTER (SEQ ID NO: 426) (peptide)
peptide: KKLFTFFVKLSLFTER
B7: KKLNTFFVKLSLFTER (SEQ ID NO: 498) (peptide)
peptide: KKLNTFFVKLSLFTER
B8: PKLDTFFVKLSLFTER (SEQ ID NO: 277) (peptide)
peptide: PKLDTFFVKLSLFTER
B9: KKLKTFFVKLSLFTER (SEQ ID NO: 512) (peptide)
peptide: KKLKTFFVKLSLFTER
B10: P27 (KKLDTFFKKLSLFTER, SEQ ID NO: 264) (peptide)
peptide: KKLDTFFKKLSLFTER
notes: also called SCF 27; SCF27
B11: KKLGTFFVKLSLFTER (SEQ ID NO: 515) (peptide)
peptide: KKLGTFFVKLSLFTER
B12: KYLDTFFVKLSLFTER (SEQ ID NO: 494) (peptide)
peptide: KYLDTFFVKLSLFTER
B13: KKLYTFFVKLSLFTER (SEQ ID NO: 303) (peptide)
peptide: KKLYTFFVKLSLFTER
B14: KKLTTFFVKLSLFTER (SEQ ID NO: 413) (peptide)
peptide: KKLTTFFVKLSLFTER
B15: SKLDTFFVKLSLFTER (SEQ ID NO: 453) (peptide)
peptide: SKLDTFFVKLSLFTER
B16: KLLDTFFVKLSLFTER (SEQ ID NO: 454) (peptide)
peptide: KLLDTFFVKLSLFTER
B17: YKLDTFFVKLSLFTER (SEQ ID NO: 483) (peptide)
peptide: YKLDTFFVKLSLFTER
B18: KKLHTFFVKLSLFTER (SEQ ID NO: 479) (peptide)
peptide: KKLHTFFVKLSLFTER
B19: RKLDTFFVKLSLFTER (SEQ ID NO: 279) (peptide)
peptide: RKLDTFFVKLSLFTER
B20: KKRDTFFVKLSLFTER (SEQ ID NO: 294) (peptide)
peptide: KKRDTFFVKLSLFTER
B21: KKLDTTFVKLSLFTER (SEQ ID NO: 318) (peptide)
peptide: KKLDTTFVKLSLFTER
B22: KKLPTFFVKLSLFTER (SEQ ID NO: 435) (peptide)
peptide: KKLPTFFVKLSLFTER
B23: KKLRTFFVKLSLFTER (SEQ ID NO: 480) (peptide)
peptide: KKLRTFFVKLSLFTER
B24: KKLDVFFVKLSLFTER (SEQ ID NO: 429) (peptide)
peptide: KKLDVFFVKLSLFTER
B25: KKLDWFFVKLSLFTER (SEQ ID NO: 311) (peptide)
peptide: KKLDWFFVKLSLFTER
B26: KKLDTYFVKLSLFTER (SEQ ID NO: 434) (peptide)
peptide: KKLDTYFVKLSLFTER
B27: KKTDTFFVKLSLFTER (SEQ ID NO: 296) (peptide)
peptide: KKTDTFFVKLSLFTER
B28: KKPDTFFVKLSLFTER (SEQ ID NO: 436) (peptide)
peptide: KKPDTFFVKLSLFTER
B29: KKVDTFFVKLSLFTER (SEQ ID NO: 297) (peptide)
peptide: KKVDTFFVKLSLFTER
B30: TKLDTFFVKLSLFTER (SEQ ID NO: 280) (peptide)
peptide: TKLDTFFVKLSLFTER
B31: KKLWTFFVKLSLFTER (SEQ ID NO: 302) (peptide)
peptide: KKLWTFFVKLSLFTER
B32: LKLDTFFVKLSLFTER (SEQ ID NO: 274) (peptide)
peptide: LKLDTFFVKLSLFTER
B33: KKWDTFFVKLSLFTER (SEQ ID NO: 458) (peptide)
peptide: KKWDTFFVKLSLFTER
B34: KKLLTFFVKLSLFTER (SEQ ID NO: 491) (peptide)
peptide: KKLLTFFVKLSLFTER
B35: KKLDTWFVKLSLFTER (SEQ ID NO: 444) (peptide)
peptide: KKLDTWFVKLSLFTER
B36: NKLDTFFVKLSLFTER (SEQ ID NO: 276) (peptide)
peptide: NKLDTFFVKLSLFTER
B37: KMLDTFFVKLSLFTER (SEQ ID NO: 417) (peptide)
peptide: KMLDTFFVKLSLFTER
B38: KKLITFFVKLSLFTER (SEQ ID NO: 300) (peptide)
peptide: KKLITFFVKLSLFTER
B39: MKLDTFFVKLSLFTER (SEQ ID NO: 275) (peptide)
peptide: MKLDTFFVKLSLFTER
B40: KQLDTFFVKLSLFTER (SEQ ID NO: 440) (peptide)
peptide: KQLDTFFVKLSLFTER
B41: KWLDTFFVKLSLFTER (SEQ ID NO: 490) (peptide)
peptide: KWLDTFFVKLSLFTER
B42: KKQDTFFVKLSLFTER (SEQ ID NO: 293) (peptide)
peptide: KKQDTFFVKLSLFTER
B43: KKNDTFFVKLSLFTER (SEQ ID NO: 292) (peptide)
peptide: KKNDTFFVKLSLFTER
B44: KVLDTFFVKLSLFTER (SEQ ID NO: 481) (peptide)
peptide: KVLDTFFVKLSLFTER
B45: KPLDTFFVKLSLFTER (SEQ ID NO: 405) (peptide)
peptide: KPLDTFFVKLSLFTER
B46: KKLDYFFVKLSLFTER (SEQ ID NO: 312) (peptide)
peptide: KKLDYFFVKLSLFTER
B47: KTLDTFFVKLSLFTER (SEQ ID NO: 468) (peptide)
peptide: KTLDTFFVKLSLFTER
B48: KNLDTFFVKLSLFTER (SEQ ID NO: 402) (peptide)
peptide: KNLDTFFVKLSLFTER
B49: KKLQTFFVKLSLFTER (SEQ ID NO: 448) (peptide)
peptide: KKLQTFFVKLSLFTER
B50: KKMDTFFVKLSLFTER (SEQ ID NO: 291) (peptide)
peptide: KKMDTFFVKLSLFTER
B51: KKLSTFFVKLSLFTER (SEQ ID NO: 451) (peptide)
peptide: KKLSTFFVKLSLFTER
B52: WKLDTFFVKLSLFTER (SEQ ID NO: 507) (peptide)
peptide: WKLDTFFVKLSLFTER
B53: KKLDTVFVKLSLFTER (SEQ ID NO: 319) (peptide)
peptide: KKLDTVFVKLSLFTER
B54: KKYDTFFVKLSLFTER (SEQ ID NO: 452) (peptide)
peptide: KKYDTFFVKLSLFTER
B55: VKLDTFFVKLSLFTER (SEQ ID NO: 281) (peptide)
peptide: VKLDTFFVKLSLFTER
B56: KRLDTFFVKLSLFTER (SEQ ID NO: 407) (peptide)
peptide: KRLDTFFVKLSLFTER
B57: KSLDTFFVKLSLFTER (SEQ ID NO: 510) (peptide)
peptide: KSLDTFFVKLSLFTER
notes: also called 30684
B58: SEQ ID NO 268 (peptide)
peptide: AKLDTFFVKLSLFTER
B59: SEQ ID NO 278 (peptide)
peptide: QKLDTFFVKLSLFTER
B60: SEQ ID NO 279 (peptide)
peptide: RKLDTFFVKLSLFTER
B61: SEQ ID NO 275 (peptide)
peptide: MKLDTFFVKLSLFTER
B62: SEQ ID NO 271 (peptide)
peptide: GKLDTFFVKLSLFTER
B63: SEQ ID NO 272 (peptide)
peptide: HKLDTFFVKLSLFTER
B64: SEQ ID NO 269 (peptide)
peptide: DKLDTFFVKLSLFTER
B65: SEQ ID NO 274 (peptide)
peptide: LKLDTFFVKLSLFTER
B66: SEQ ID NO 276 (peptide)
peptide: NKLDTFFVKLSLFTER
B67: SEQ ID NO 273 (peptide)
peptide: IKLDTFFVKLSLFTER
B68: SEQ ID NO 277 (peptide)
peptide: PKLDTFFVKLSLFTER
B69: SEQ ID NO 270 (peptide)
peptide: EKLDTFFVKLSLFTER

Target: T1, P3028 (VFDEFKPLVEEPQNLIK, SEQ ID NO: …)
Experiment: PEPSCAN ELISA; peptide on chip, His-P3028 added;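 also: peroxidase color development with ABTS and H2O2 substrate, OD405 imaged by CCD camera with image processing and taken as raw values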
Description: (§1) After washing, the peroxidase substrate 2,2′-azine-di-3-ethylbenzthiazoline sulfonate (ABTS) and 2 μL of 3% H2O2 were added. The binding capacity of the mAb was measured as a color development at 405 nm (optical density, OD405). The color development was quantified with a charge-coupled device (CCD)—camera and an image processing system.
(§2) The OD405-values obtained by a CCD-camera was considered as raw data values (“rampo values,” “rampo units,” or “rampo scores”). […] First the CCD-camera made a picture of the card before peroxidase coloring and then again a picture after the peroxidase coloring. […] These values were copied into an excel file and labeled as a raw data file. […] Sometimes a well can contain an air-bubble resulting in a false-positive value. If manual inspection of the cards detect an air-bubble the value are set to 0 for well.

First: B1
Second: B2
The “RAMPO Score” value of the first is higher: 432 rampo units for the first, 393 rampo units for the second.

First: B3
Second: B4
The “RAMPO Score” value of the first is higher: 417 rampo units for the first, 384 rampo units for the second.

First: B5
Second: B6
The “RAMPO Score” value of the first is higher: 455 rampo units for the first, 380 rampo units for the second.

First: B7
Second: B8
The “RAMPO Score” value of the first is lower: 296 rampo units for the first, 387 rampo units for the second.

Going from B9 to B10, the “RAMPO Score” value falls from 274 rampo units to 253 rampo units.

First: B11
Second: B12
The “RAMPO Score” value of the first is lower: 264 rampo units for the first, 301 rampo units for the second.

Compared with B13, B14 is lower in “RAMPO Score” value: 422 rampo units for the first, 405 rampo units for the second.

Going from B15 to B16, the “RAMPO Score” value falls from 344 rampo units to 343 rampo units.

Going from B17 to B18, the “RAMPO Score” value rises from 315 rampo units to 317 rampo units.

First: B19
Second: B20
The “RAMPO Score” value of the first is higher: 523 rampo units for the first, 370 rampo units for the second.

Compared with B21, B22 is lower in “RAMPO Score” value: 481 rampo units for the first, 364 rampo units for the second.

Going from B23 to B24, the “RAMPO Score” value rises from 317 rampo units to 374 rampo units.

Going from B25 to B26, the “RAMPO Score” value falls from 418 rampo units to 364 rampo units.

Going from B27 to B28, the “RAMPO Score” value falls from 451 rampo units to 361 rampo units.

Compared with B29, B30 is higher in “RAMPO Score” value: 377 rampo units for the first, 493 rampo units for the second.

Compared with B31, B32 is higher in “RAMPO Score” value: 443 rampo units for the first, 449 rampo units for the second.

Compared with B33, B34 is lower in “RAMPO Score” value: 341 rampo units for the first, 303 rampo units for the second.

First: B35
Second: B36
The “RAMPO Score” value of the first is lower: 348 rampo units for the first, 445 rampo units for the second.

Compared with B37, B38 is higher in “RAMPO Score” value: 400 rampo units for the first, 430 rampo units for the second.

Going from B39 to B40, the “RAMPO Score” value falls from 457 rampo units to 350 rampo units.

First: B41
Second: B42
The “RAMPO Score” value of the first is lower: 304 rampo units for the first, 473 rampo units for the second.

Compared with B43, B44 is lower in “RAMPO Score” value: 374 rampo units for the first, 317 rampo units for the second.

B45 and B46 are the same in “RAMPO Score” value: 425 rampo units for the first, 425 rampo units for the second.

Compared with B47, B48 is higher in “RAMPO Score” value: 331 rampo units for the first, 432 rampo units for the second.

First: B49
Second: B50
The “RAMPO Score” value of the first is lower: 345 rampo units for the first, 460 rampo units for the second.

First: B51
Second: B52
The “RAMPO Score” value of the first is higher: 344 rampo units for the first, 284 rampo units for the second.

Going from B53 to B54, the “RAMPO Score” value falls from 547 rampo units to 344 rampo units.

First: B55
Second: B56
The “RAMPO Score” value of the first is higher: 442 rampo units for the first, 417 rampo units for the second.

With B57 the “RAMPO Score” value was 281 rampo units.

Target: T2, His-tagged P3028
Experiment: PEPSCAN ELISA, peptide on chip;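 also: binding detected by peroxidase ELISA with ABTS, OD405 colour imaged by CCD camera before and after staining, raw OD405 reported as rampo units, air-bubble wells scored 0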
Description: as §1, §2

Going from B58 to B59, the “RAMPO Score” value falls from 466 rampo units to 455 rampo units.

First: B60
Second: B61
The “RAMPO Score” value of the first is higher: 523 rampo units for the first, 457 rampo units for the second.

Compared with B62, B63 is higher in “RAMPO Score” value: 367 rampo units for the first, 428 rampo units for the second.

Compared with B64, B65 is higher in “RAMPO Score” value: 373 rampo units for the first, 449 rampo units for the second.

Going from B66 to B67, the “RAMPO Score” value rises from 445 rampo units to 483 rampo units.

Compared with B68, B69 is higher in “RAMPO Score” value: 387 rampo units for the first, 396 rampo units for the second.
